In publication PMC6102255, “EPO does not promote interaction between the erythropoietin and beta-common receptors” (Scientific Reports, 2018):

Experiments:
[1] = biological target: extracellular domains of the erythropoietin receptor (EPOR), in-house purified (UniProt P19235); experiment: MST; EPOR labelled with DyLight 650 (30 nM), unlabelled EPOR titrated (0.05-1700 nM); 50 mM Tris, 10 mM MgCl2, 150 mM NaCl, 0.05% Tween 20, pH 7.5; 60% laser power; homodimer to monomers, no EPO
[2] = biological target: the molecule itself; experiment: AUC; sedimentation velocity, 20 °C, 50,000 rpm, 10 mM HEPES, 500 mM NaCl pH 7.2; single proteins (EPO 3 μM; EPOR 1.5, 3, 6 μM; βc 0.75, 1.5, 3 μM) and mixtures of two (EPO + EPOR; βc + EPOR)

Row | Molecule | Kd [1] [nM] | stoichiometry N [2]
1 | extracellular domains of the erythropoietin receptor (EPOR), in-house purified (from UniProt P19235 25-250) (domain or fragment) | 166 | –
2 | extracellular regions of the beta-common (βc) receptor, in-house purified (domain or fragment, UniProt P32927 17-443, looked up, biotin (EZ link sulfo-NHS biotin) when immobilised in SPR; unmodified otherwise, beta common receptor (βc, shared subunit of the GM-CSF, IL-3 and IL-5 receptors), extracellular regions; Used in SEC, MST, SPR and AUC; Plasmid donated by Dr. Timothy Hercus; purification details are in the Supplementary data; also called βc homodimer; CD131) WERSLAGAEETIPLQTLRCYNDYTSHITCRWADTQDAQRLVNVTLIRRVNEDLLEPVSCDLSDDMPWSACPHPRCVPRRCVIPCQSFVVTDVDYFSFQPDRPLGTRLTVTLTQHVQPPEPRDLQISTDQDHFLLTWSVALGSPQSHWLSPGDLEFEVVYKRLQDSWEDAAILLSNTSQATLGPEHLMPSSTYVARVRTRLAPGSRLSGRPSKWSPEVCWDSQPGDEAQPQNLECFFDGAAVLSCSWEVRKEVASSVSFGLFYKPSPDAGEEECSPVLREGLGSLHTRHHCQIPVPDPATHGQYIVSVQPRRAEKHIKSSVNIQMAPPSLNVTKDGDSYSLRWETMKMRYEHIDHTFEIQYRKDTATWKDSKTETLQNAHSMALPALEPSTRYWARVRVRTSRTGYNGIWSEWSEARSWDTESVLPMW | – | 2
